# Results published in US20250262244A1 (published 2025).
# T1: EWSR1/WT1 fusion protein (junction of EWS and WT1) peptide on HLA-A*03 (human)
# T1 peptide: SSYGQQSEK
# T2: EWSR1/WT1 fusion protein (junction of EWS and WT1) peptide on HLA-A*11 (human)
# T2 peptide: SSYGQQSEK
# Assays:
# [1] = molecular target: T1, EWSR1/WT1 fusion protein (junction of …); assay: cytokine release
# [2] = molecular target: T2, EWSR1/WT1 fusion protein (junction of …); assay: cytokine release
# [3] = molecular target: T1, EWSR1/WT1 fusion protein (junction of …); assay: multimer staining
Binder,binding result [1],binding result [2],binding result [3]
"TCR15 (TCR, V domains shown) Valpha: QKEVEQDPGPLSVPEGAIVSLNCTYSNSAFQYFMWYRQYSRKGPELLMYTYSSGNKEDGRFTAQVDKSSKYISLFIRDSQPSDSATYLCAMGGGSNYKLTFGKGTLLTVNP Vbeta: DSGVTQTPKHLITATGQRVTLRCSPRSGDLSVYWYQQSLDQGLQFLIQYYNGEERAKGNILERFSAQQFPDLHSELNLSSLELGDSALYFCASSPPGQTNYGYTFGSGTRLTVV",recognises,recognises,
"TCR14 (TCR, V domains shown) Valpha: GQQLNQSPQSMFIQEGEDVSMNCTSSSIFNTWLWYKQDPGEGPVLLIALYKAGELTSNGRLTAQFGITRKDSFLNISASIPSDVGIYFCAGQGASGTYKYIFGTGTRLKVLA Vbeta: DAGVIQSPRHEVTEMGQEVTLRCKPISGHNSLFWYRQTMMRGLELLIYFNNNVPIDDSGMPEDRFSAKMPNASFSTLKIQPSEPRDSAVYFCASSPGTSDEFFGPGTRLTVL",,,recognises
"TCR12 (TCR, V domains shown) Valpha: AQKVTQAQTEISVVEKEDVTLDCVYETRDTTYYLFWYKQPPSGELVFLIRRNSFDEQNEISGRYSWNFQKSTSSFNFTITASQVVDSAVYFCALSEMQGGSEKLVFGKGTKLTVNP Vbeta: DSGVTQTPKHLITATGQRVTLRCSPRSGDLSVYWYQQSLDQGLQFLIHYYNGEERAKGNILERFSAQQFPDLHSELNLSSLELGDSALYFCASSTSSGSPDTQYFGPGTRLTVL",,,recognises
